Test results published in patent US20210179666A1 (REGENTS OF THE UNIVERSITY OF MINNESOTA, published 2021).
Like-named read-outs stand apart in the source and are kept apart here. Each block holds one binder with its values, some of them ahead of it. Square brackets hold non-standard residues; d marks the D form.

Columns and labels:
[1] = target: T1, human melanocortin 4 receptor (human, UniProt P32245 1-332); experiment: cell-based or functional assay
[2] = target: T2, mouse melanocortin 1 receptor (mouse, UniProt Q01727 1-315); experiment: cell-based or functional assay
[3] = target: T3, mouse melanocortin 3 receptor (mouse, UniProt P33033 1-323); experiment: cell-based or functional assay
[4] = target: T4, mouse melanocortin 4 receptor (mouse, UniProt P56450 1-332); experiment: cell-based or functional assay
[5] = target: T5, mouse melanocortin 5 receptor (mouse, UniProt P41149 1-325); experiment: cell-based or functional assay
[6] = target: T2, mouse melanocortin 1 receptor; experiment: 125I-NDP-MSH competition, HEK293 cells
[7] = target: T3, mouse melanocortin 3 receptor; experiment: 125I-NDP-MSH competition, HEK293 cells
[8] = target: T4, mouse melanocortin 4 receptor; experiment: 125I-NDP-MSH competition, HEK293 cells
[9] = target: T5, mouse melanocortin 5 receptor; experiment: 125I-NDP-MSH competition, HEK293 cells
[10] = target: T1, human melanocortin 4 receptor; experiment: 125I-NDP-MSH competition, HEK293 cells
[11] = target: T2, mouse melanocortin 1 receptor; experiment: 125I-NDP-MSH competition; fold vs SEQ ID NO: 1 control
[12] = target: T3, mouse melanocortin 3 receptor; experiment: as above
[13] = target: T4, mouse melanocortin 4 receptor; experiment: as above
[14] = target: T5, mouse melanocortin 5 receptor; experiment: as above
[15] = target: T1, human melanocortin 4 receptor; experiment: as above
[16] = target: T3, mouse melanocortin 3 receptor; experiment: cell-based or functional assay; remark: listed apart in the source
[17] = target: T4, mouse melanocortin 4 receptor; experiment: cell-based or functional assay; remark: listed apart in the source
[18] = target: T5, mouse melanocortin 5 receptor; experiment: cell-based or functional assay; remark: listed apart in the source

T2 sequence (Q01727 whole entry): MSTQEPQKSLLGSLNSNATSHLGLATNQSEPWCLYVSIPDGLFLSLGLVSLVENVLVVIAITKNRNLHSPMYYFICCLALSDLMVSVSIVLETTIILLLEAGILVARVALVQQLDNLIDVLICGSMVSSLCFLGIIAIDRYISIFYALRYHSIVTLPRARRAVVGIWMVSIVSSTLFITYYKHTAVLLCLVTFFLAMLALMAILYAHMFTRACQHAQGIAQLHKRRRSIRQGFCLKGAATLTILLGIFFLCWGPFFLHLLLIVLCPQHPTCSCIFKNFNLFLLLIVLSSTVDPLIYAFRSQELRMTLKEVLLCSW
T3 sequence (P33033 whole entry): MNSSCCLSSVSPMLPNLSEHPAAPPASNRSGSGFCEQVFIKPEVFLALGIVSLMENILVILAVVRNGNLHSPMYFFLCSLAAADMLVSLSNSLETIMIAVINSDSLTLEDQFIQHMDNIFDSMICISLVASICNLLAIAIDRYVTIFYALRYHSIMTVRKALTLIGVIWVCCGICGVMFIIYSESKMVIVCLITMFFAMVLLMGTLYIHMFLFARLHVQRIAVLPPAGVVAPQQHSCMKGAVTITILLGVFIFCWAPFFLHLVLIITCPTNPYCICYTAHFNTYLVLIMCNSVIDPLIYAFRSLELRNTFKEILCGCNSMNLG
T4 sequence (P56450 whole entry): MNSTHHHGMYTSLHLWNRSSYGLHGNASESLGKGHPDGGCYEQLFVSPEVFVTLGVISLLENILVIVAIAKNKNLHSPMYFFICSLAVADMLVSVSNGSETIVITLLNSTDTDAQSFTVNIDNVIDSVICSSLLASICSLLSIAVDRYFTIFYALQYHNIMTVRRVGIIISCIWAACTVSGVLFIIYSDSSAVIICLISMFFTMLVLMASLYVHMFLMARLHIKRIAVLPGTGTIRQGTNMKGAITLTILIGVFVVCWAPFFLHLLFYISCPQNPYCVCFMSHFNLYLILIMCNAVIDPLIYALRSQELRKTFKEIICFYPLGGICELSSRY
T5 sequence (P41149 whole entry): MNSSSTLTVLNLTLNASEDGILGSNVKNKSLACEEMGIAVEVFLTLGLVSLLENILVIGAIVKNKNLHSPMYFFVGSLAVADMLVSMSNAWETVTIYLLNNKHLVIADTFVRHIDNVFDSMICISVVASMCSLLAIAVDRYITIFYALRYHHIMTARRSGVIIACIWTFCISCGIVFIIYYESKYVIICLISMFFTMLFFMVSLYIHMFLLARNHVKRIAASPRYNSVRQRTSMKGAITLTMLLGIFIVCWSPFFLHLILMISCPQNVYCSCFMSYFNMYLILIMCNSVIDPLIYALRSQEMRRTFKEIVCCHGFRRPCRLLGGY
T1 sequence (P32245 whole entry): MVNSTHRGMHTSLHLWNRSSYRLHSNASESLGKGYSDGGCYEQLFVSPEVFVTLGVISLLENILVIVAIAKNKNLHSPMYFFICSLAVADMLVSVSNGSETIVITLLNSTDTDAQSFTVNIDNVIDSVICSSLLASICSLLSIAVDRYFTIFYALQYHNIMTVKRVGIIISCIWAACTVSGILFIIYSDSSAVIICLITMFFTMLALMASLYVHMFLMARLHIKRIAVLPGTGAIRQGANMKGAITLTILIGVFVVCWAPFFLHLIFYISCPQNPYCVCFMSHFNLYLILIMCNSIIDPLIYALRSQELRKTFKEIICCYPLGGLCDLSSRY

- pA2 (Schild analysis, agonist NDP-MSH, cAMP) [1]: 7.8
- percent maximal stimulatory response at 100 µM (cAMP) [2]: 23%
- EC50 (cAMP agonist) [3]: > 100 µM
- pA2 (Schild analysis, agonist NDP-MSH, cAMP) [3]: 5.9
- pA2 (Schild analysis, agonist NDP-MSH, cAMP) [4]: 7.2
- percent maximal stimulatory response at 100 µM (cAMP) [4]: 16%
- EC50 (cAMP agonist) [5]: > 100 µM
- pA2 (Schild analysis, agonist NDP-MSH, cAMP) [5]: 6.1
- IC50 [6]: 15 µM
- IC50 [7]: 53 µM
- IC50 [8]: 0.038 µM
- IC50 [9]: 29 µM
- IC50 [10]: 0.25 µM
- Fold Diff [11]: 2 fold
- Fold Diff [12]: 3 fold
- Fold Diff [13]: 2 fold
- Fold Diff [14]: 2 fold
- Fold Diff [15]: 3 fold
B1: ZMK 2-82 (peptide)
peptide: cyclo(PRFFNVF[dP])
notes: Ala115Val SNP in the Asn scaffold; also called c[Pro-Arg-Phe-Phe-Asn-Val-Phe-DPro]

- pA2 (Schild analysis, agonist NDP-MSH, cAMP) [16]: < 5
- pA2 (Schild analysis, agonist NDP-MSH, cAMP) [17]: 5.9
- pA2 (Schild analysis, agonist NDP-MSH, cAMP) [18]: < 5
- pA2 (Schild analysis, agonist NDP-MSH, cAMP) [1]: 5.8
- IC50 [6]: 24.6 µM
- IC50 [8]: 1.9 µM
- IC50 [10]: 19.3 µM
- Fold Diff [11]: 3 fold
- Fold Diff [13]: 90 fold
- Fold Diff [15]: 300 fold
B2: ZMK 3-18 (peptide)
peptide: cyclo(PCFFNAF[dP])
notes: Arg111Cys SNP in the Asn scaffold; also called c[Pro-Cys-Phe-Phe-Asn-Ala-Phe-DPro]
